Measured values as given in patent publication US11767353B2, “Trail compositions with reduced immunogenicity” (Theraly Fibrosis, Inc., priority 2020, dated 2023).
“Also recorded” adds a separate entry of the source.

Assays:
ASPC-1/PSC xenografts = test: PSC/ASPC-1 subcutaneous xenograft in athymic nude mice; type: in vivo
Procedure: Six-week-old athymic nude mice were anesthetized for all procedures 5×10^6ASPC-1 cells (human pancreas adenocarcinoma ascites metastasis cell line derived from nude mouse xenografts initiated with cells from the ascites of a patient with cancer of the pancreas) were mixed with 5×10^4 PSC cells and injected in a subcutaneous in athymic nude mice. Before injection, the cells were trypsinized, counted, washed twice in 1×PBS and resuspended in 100 μl of Matrigel® matrix (Corning), and injected between the scapulae. Two weeks after the tumor transplantation, mice were injected with TLY012 via intravenous (IV) injection (10 mg/kg, every other day) for 2 weeks, while control mice received PBS. Western blot was performed on tissue extracts with antibodies against GAPDH (Santa Cruz 5 Biotechnology, sc-1694), α-SMA (Sigma, A2547), GRP78 (Santa Cruz Biotechnology, sc-13968), DR4 (Abcam, Cambridge, Mass., #13890), DR5 (Abcam, #47179), PDGF-Rb (Santa Cruz Biotechnology, sc-432), and Cl.PARP-1 (Cell Signaling Technology, #5625).
Comparative quantitative RT-PCR (qPCR) was performed in the tumor sample for fibrogenic markers. qPCR was performed in triplicate for each sample using fast SYBR Green Master Mix (Thermo Fisher Scientific) and StepOnePlus Real-Time PCR System (Thermo Fisher Scientific). The expression levels of target genes were normalized to the expression of 18s and calculated based on the comparative cycle threshold Ct method (2^−ΔΔCt).
Collagen deposition was detected with Masson's Trichrome staining and microscopy.
Mouse xenografts were generated as in Example 8. Two weeks after the tumor transplantation, mice were injected with TLY012 via intravenous (IV) injection (10 mg/kg, every other day) and/or sorafenib (20 mg/kg, oral everyday) for 2 weeks. The mice were euthanized when the tumor volume reached 1500 mm^3 and images of the excised xenografts recorded and tumor weight measured.

[1] = Single-dose pharmacokinetics in Cynomolgus monkeys (ELISA, serum)
Source text: PK parameters were addressed in Cynomolgus monkeys. This was a single dose, parallel group, dose escalation study in 5 males and 5 females normal Cynomolgus monkeys ranging in age from 34 to 44 months. At the start date of the study body weights ranged from 2.9 to 3.9 kg for males and 2.9 to 3.2 kg for females. Blood samples were collected at time point indicated in Table 3 and serum samples prepared for analyzing drug levels.
A sandwich enzyme-linked immunosorbent assay (ELISA) for human TRAIL was developed to measure the concentrations of TLY012 in monkey serum. Briefly, serum samples were diluted in 0.5% normal monkey serum and incubated with anti-TRAIL capturing antibodies immobilized on ELISA plates. Test samples were analyzed at 1:200-1:168000 dilutions (depending on the predicted concentrations) to fit into the range of the standard curve (97 pg/mL-12.5 ng/mL). All data within the assay range were reported and provided for pharmacokinetic analysis
A compartment model independent pharmacokinetic analysis was conducted on dose and serum concentration-time data with Phoenix 64 WinNonlin software. The parameters addressed: maximum serum concentrations (Cmax), time (Tmax) to reach Cmax, time (Tlast) to reach the last quantifiable concentration (Clast), elimination half-life (t½). Area under the curve from zero to Clast (AUClast), the total area under the curve from zero to infinity (AUC). Total systemic clearance (CL) and steady state volume of distribution (Vss) was calculated for IV group. Clearance (CL/F) and volume of distribution (Vz/F) and bioavailability (F) was computed for the SC groups. In addition, dose-exposure relationship was evaluated by linear regression analysis.

In the case of “TLY012: PEGylated (5 kDa PEG-aldehyde) recombinant human TRAIL (114-281) fused to modified isoleucine zipper (miLZ) at N-terminus; SEQ ID NO:30 trimer”, the “tumor weight, Mean” value (ASPC-1/PSC xenografts; TLY012 IV 10 mg/kg every other day and/or sorafenib 20 mg/kg oral everyday for 2 weeks) was 1109.5 mg, the “collagen deposition, Masson's Trichrome staining” value (ASPC-1/PSC xenografts; TLY012 IV 10 mg/kg every other day, 2 weeks, 10 mg/kg) was “reduced the levels of collagen; also recorded: markedly reduced collagen deposition” and the “PDGF-Rb, DR5, DR4 (and GRP78) protein levels in tumor, Western blot” value (ASPC-1/PSC xenografts; TLY012 IV 10 mg/kg every other day, 2 weeks, vs PBS controls, 10 mg/kg) was “markedly reduced; also recorded: significantly decreased”. For the same substance, the “mRNA levels of fibrogenic markers Acta2, Pdgf-r, Tgf-b in tumor (qPCR)” value (ASPC-1/PSC xenografts; TLY012 IV 10 mg/kg every other day, 2 weeks, vs control, 10 mg/kg) was “decreased; also recorded: significantly reduced”, the AUC ([1]; IV 10 mg/kg, female (ID 401)) was 7780 µg·h/mL and the AUCext ([1]; IV 10 mg/kg, female (ID 401)) was 0.185%. The Cmax ([1]; IV 10 mg/kg, female (ID 401)) was 319 µg/mL, the Tlast ([1]; IV 10 mg/kg, female (ID 401)) was 360 h and the Tmax ([1]; IV 10 mg/kg, female (ID 401)) was 0.250 h. It also gave an AUC ([1]; IV 10 mg/kg, male (ID 1)) of 8590 µg·h/mL, an AUCext ([1]; IV 10 mg/kg, male (ID 1)) of 0.411% and a Cmax ([1]; IV 10 mg/kg, male (ID 1)) of 289 µg/mL. For the same substance, the Tlast ([1]; IV 10 mg/kg, male (ID 1)) was 360 h, the Tmax ([1]; IV 10 mg/kg, male (ID 1)) was 0.250 h and the AUC ([1]; SC 2 mg/kg, female (ID 501)) was 836 µg·h/mL. The AUCext ([1]; SC 2 mg/kg, female (ID 501)) was 1.45%, the Cmax ([1]; SC 2 mg/kg, female (ID 501)) was 12.1 µg/mL and the “F (absolute bioavailability)” value ([1]; SC 2 mg/kg, female (ID 501)) was 53.7%. It also gave a Tlast ([1]; SC 2 mg/kg, female (ID 501)) of 264 h, a Tmax ([1]; SC 2 mg/kg, female (ID 501)) of 12.0 h and an AUC ([1]; SC 2 mg/kg, male (ID 101)) of 642 µg·h/mL. For the same substance, the AUCext ([1]; SC 2 mg/kg, male (ID 101)) was 0.779%, the Cmax ([1]; SC 2 mg/kg, male (ID 101)) was 10.8 µg/mL and the “F (absolute bioavailability)” value ([1]; SC 2 mg/kg, male (ID 101)) was 37.4%. The Tlast ([1]; SC 2 mg/kg, male (ID 101)) was 264 h, the Tmax ([1]; SC 2 mg/kg, male (ID 101)) was 6.00 h and the AUC ([1]; SC 10 mg/kg, female (ID 601)) was 6190 µg·h/mL. For the same substance, the AUCext ([1]; SC 10 mg/kg, female (ID 601)) was 0.266%, the Cmax ([1]; SC 10 mg/kg, female (ID 601)) was 52.7 µg/mL and the “F (absolute bioavailability)” value ([1]; SC 10 mg/kg, female (ID 601)) was 79.6%. The Tlast ([1]; SC 10 mg/kg, female (ID 601)) was 264 h, the Tmax ([1]; SC 10 mg/kg, female (ID 601)) was 48.0 h and the AUC ([1]; SC 10 mg/kg, male (ID 201)) was 6480 µg·h/mL. The AUCext ([1]; SC 10 mg/kg, male (ID 201)) was 0.0231%, the Cmax ([1]; SC 10 mg/kg, male (ID 201)) was 51.7 µg/mL and the “F (absolute bioavailability)” value ([1]; SC 10 mg/kg, male (ID 201)) was 75.4%. The Tlast ([1]; SC 10 mg/kg, male (ID 201)) was 360 h, the Tmax ([1]; SC 10 mg/kg, male (ID 201)) was 24.0 h and the AUC ([1]; SC 50 mg/kg, female (ID 701)) was 44200 µg·h/mL. The AUCext ([1]; SC 50 mg/kg, female (ID 701)) was 1.28%, the Cmax ([1]; SC 50 mg/kg, female (ID 701)) was 296 µg/mL and the “F (absolute bioavailability)” value ([1]; SC 50 mg/kg, female (ID 701)) was 114%. It also gave a Tlast ([1]; SC 50 mg/kg, female (ID 701)) of 360 h, a Tmax ([1]; SC 50 mg/kg, female (ID 701)) of 24.0 h and an AUC ([1]; SC 50 mg/kg, male (ID 301)) of 33400 µg·h/mL. For the same substance, the AUCext ([1]; SC 50 mg/kg, male (ID 301)) was 3.13%, the Cmax ([1]; SC 50 mg/kg, male (ID 301)) was 186 µg/mL and the Tlast ([1]; SC 50 mg/kg, male (ID 301)) was 264 h. The Tmax ([1]; SC 50 mg/kg, male (ID 301)) was 72.0 h, the “F (absolute bioavailability)” value ([1]; SC 50 mg/kg, male (ID 301), 50 mg/kg) was 77.88% and the “F (absolute bioavailability)” value ([1]; SC 50 mg/kg, male (ID 301), listed as TYL012, 50 mg/kg) was 77.8%. The “dose relationship of maximum serum (Cmax) concentrations” value ([1]; dose range 2-50 mg/kg) was “increased dose proportionately”.
